The results in this text go back to paper PMC6051995, “p38-mediated phosphorylation at T367 induces EZH2 cytoplasmic localization to promote breast cancer metastasis” (Nature Communications, 2018).

Experiment [1] concerns the target T1, pEZH2(T367) (endogenous EZH2 phosphorylated at T367) (human (endogenous in MDA-MB-231), UniProt Q15910 1-746, phosphothreonine at 367).
T1 construct: EZH2, endogenous, phosphorylated at T367 by p38; also called phosphorylated EZH2 (T367); source: endogenous, MDA-MB-231 (whole cell extracts; fixed cells for PLA)
The experiment can be described thus: co-IP; endogenous proteins from whole cell extracts of MDA-MB-231 cells; magnetic Dynabeads with antibody (EZH2, pEZH2 or vinculin); with or without doxycycline to induce MKK6EE and p38 activation. To be noted: partners not purified.

Experiment [2] concerns the target T2, Recombinant vinculin protein (UniProt P18206-2 1-1066).
T2 construct: vinculin, recombinant; The BLI methods describe EZH2 and p38α but say nothing of the vinculin protein
T2 sequence (looked up): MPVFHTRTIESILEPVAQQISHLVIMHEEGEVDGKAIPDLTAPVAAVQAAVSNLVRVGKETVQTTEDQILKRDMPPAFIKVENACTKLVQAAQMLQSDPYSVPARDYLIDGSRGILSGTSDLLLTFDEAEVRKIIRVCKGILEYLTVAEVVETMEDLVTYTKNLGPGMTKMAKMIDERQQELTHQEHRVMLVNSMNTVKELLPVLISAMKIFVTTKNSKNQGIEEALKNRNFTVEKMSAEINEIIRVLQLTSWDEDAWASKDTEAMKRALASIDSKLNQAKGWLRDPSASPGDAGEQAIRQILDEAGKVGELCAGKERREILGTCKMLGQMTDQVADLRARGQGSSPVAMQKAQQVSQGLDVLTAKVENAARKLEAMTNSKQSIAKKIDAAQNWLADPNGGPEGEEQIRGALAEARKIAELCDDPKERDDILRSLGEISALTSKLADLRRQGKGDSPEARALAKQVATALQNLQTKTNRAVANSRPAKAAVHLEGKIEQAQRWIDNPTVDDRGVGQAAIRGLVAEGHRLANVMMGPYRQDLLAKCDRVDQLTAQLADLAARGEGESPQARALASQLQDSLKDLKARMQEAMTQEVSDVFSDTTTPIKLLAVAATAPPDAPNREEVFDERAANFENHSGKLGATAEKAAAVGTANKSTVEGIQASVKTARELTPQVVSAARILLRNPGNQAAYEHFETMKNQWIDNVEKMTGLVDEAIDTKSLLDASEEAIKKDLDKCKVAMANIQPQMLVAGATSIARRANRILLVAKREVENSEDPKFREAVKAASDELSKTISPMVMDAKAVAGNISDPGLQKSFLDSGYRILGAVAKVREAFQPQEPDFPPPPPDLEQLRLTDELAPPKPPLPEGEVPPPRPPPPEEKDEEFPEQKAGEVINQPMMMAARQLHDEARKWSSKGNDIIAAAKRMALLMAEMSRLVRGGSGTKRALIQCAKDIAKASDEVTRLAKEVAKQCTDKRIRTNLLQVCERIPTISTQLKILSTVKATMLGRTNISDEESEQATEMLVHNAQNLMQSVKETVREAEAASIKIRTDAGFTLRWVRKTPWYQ
The experiment can be described thus: BLI; same experiment as a1 (EZH2 immobilised, 30 °C, HBS-P); steady state analysis of response against concentration. As to conditions: both partners purified.

Experiment [3] addresses T2, Recombinant vinculin protein. Kind of experiment: BLI; biotinylated GST-EZH2 immobilised on Super Streptavidin (SSA) biosensors; analyte in a concentration series; OctetRED96; 30 °C; HBS-P (10 mM HEPES pH 7.4, 150 mM NaCl, 0.005% tween-20); double referencing; kinetic fit, 1:1 binding model. To be noted: both partners purified. (In general: In BLI a coated tip is dipped into the sample, and binding shifts an interference pattern.)

T1 sequence (Q15910 whole entry): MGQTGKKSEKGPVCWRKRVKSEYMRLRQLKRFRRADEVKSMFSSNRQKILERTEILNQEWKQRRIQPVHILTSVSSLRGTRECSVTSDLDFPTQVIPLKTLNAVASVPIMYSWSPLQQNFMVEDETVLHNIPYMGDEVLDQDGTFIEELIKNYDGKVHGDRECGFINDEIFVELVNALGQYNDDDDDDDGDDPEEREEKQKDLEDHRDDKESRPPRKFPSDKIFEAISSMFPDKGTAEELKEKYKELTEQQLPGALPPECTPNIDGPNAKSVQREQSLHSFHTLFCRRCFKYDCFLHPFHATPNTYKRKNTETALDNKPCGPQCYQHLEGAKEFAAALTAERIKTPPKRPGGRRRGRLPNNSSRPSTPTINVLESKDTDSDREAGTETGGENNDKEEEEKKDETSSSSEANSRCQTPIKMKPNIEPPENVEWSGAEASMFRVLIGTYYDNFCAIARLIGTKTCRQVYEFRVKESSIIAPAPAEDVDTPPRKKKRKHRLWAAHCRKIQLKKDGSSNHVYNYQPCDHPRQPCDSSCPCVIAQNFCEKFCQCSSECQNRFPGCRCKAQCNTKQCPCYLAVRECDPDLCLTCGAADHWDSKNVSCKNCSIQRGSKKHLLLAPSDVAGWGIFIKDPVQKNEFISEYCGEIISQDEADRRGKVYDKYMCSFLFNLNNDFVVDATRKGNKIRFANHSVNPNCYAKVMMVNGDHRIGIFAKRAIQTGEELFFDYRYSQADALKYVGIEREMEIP

B1: vinculin (endogenous) (natural protein, human (endogenous in MDA-MB-231), UniProt P18206-2 1-1066, looked up)
chain: MPVFHTRTIESILEPVAQQISHLVIMHEEGEVDGKAIPDLTAPVAAVQAAVSNLVRVGKETVQTTEDQILKRDMPPAFIKVENACTKLVQAAQMLQSDPYSVPARDYLIDGSRGILSGTSDLLLTFDEAEVRKIIRVCKGILEYLTVAEVVETMEDLVTYTKNLGPGMTKMAKMIDERQQELTHQEHRVMLVNSMNTVKELLPVLISAMKIFVTTKNSKNQGIEEALKNRNFTVEKMSAEINEIIRVLQLTSWDEDAWASKDTEAMKRALASIDSKLNQAKGWLRDPSASPGDAGEQAIRQILDEAGKVGELCAGKERREILGTCKMLGQMTDQVADLRARGQGSSPVAMQKAQQVSQGLDVLTAKVENAARKLEAMTNSKQSIAKKIDAAQNWLADPNGGPEGEEQIRGALAEARKIAELCDDPKERDDILRSLGEISALTSKLADLRRQGKGDSPEARALAKQVATALQNLQTKTNRAVANSRPAKAAVHLEGKIEQAQRWIDNPTVDDRGVGQAAIRGLVAEGHRLANVMMGPYRQDLLAKCDRVDQLTAQLADLAARGEGESPQARALASQLQDSLKDLKARMQEAMTQEVSDVFSDTTTPIKLLAVAATAPPDAPNREEVFDERAANFENHSGKLGATAEKAAAVGTANKSTVEGIQASVKTARELTPQVVSAARILLRNPGNQAAYEHFETMKNQWIDNVEKMTGLVDEAIDTKSLLDASEEAIKKDLDKCKVAMANIQPQMLVAGATSIARRANRILLVAKREVENSEDPKFREAVKAASDELSKTISPMVMDAKAVAGNISDPGLQKSFLDSGYRILGAVAKVREAFQPQEPDFPPPPPDLEQLRLTDELAPPKPPLPEGEVPPPRPPPPEEKDEEFPEQKAGEVINQPMMMAARQLHDEARKWSSKGNDIIAAAKRMALLMAEMSRLVRGGSGTKRALIQCAKDIAKASDEVTRLAKEVAKQCTDKRIRTNLLQVCERIPTISTQLKILSTVKATMLGRTNISDEESEQATEMLVHNAQNLMQSVKETVREAEAASIKIRTDAGFTLRWVRKTPWYQ
notes: vinculin, endogenous; source: endogenous, MDA-MB-231 (whole cell lysate; fixed cells for PLA)
As for B1, the “fold increase of binding on p38 activation against uninduced controls” value in experiment [1] was approximately 10 fold.

B2: Recombinant EZH2 (GST-EZH2 aa 2-end) (natural protein)
chain: not shown
modifications: biotin (Sulpho-NHS-LC-biotin, protein and biotin mixed 1:1 molar ratio)
notes: EZH2 (Enhancer of zeste homolog 2), aa 2-end; GST-EZH2 MW = 114 kDa; The vendor is printed only as 'Bioscience'; also called Enhancer of zeste homolog 2; immobilized EZH2; source: bought: Bioscience (recombinant)
In general, Kd refers to the concentration at which binding is half-saturated. As a reminder, the koff is the first-order rate constant of dissociation. A word on the kon: it is a measure of how fast the partners come together. As to B2, in experiment [2], the Kd was found to be 42 nM. For the same molecule, in experiment [3], the Kd stood at 15 nM, the koff was 0.00385 s⁻¹ and the kon came out at 294000 M⁻¹ s⁻¹.
